Experimental data as given in the supplement of paper PMC10567573.

B1: ETS2 (parent)
chain: TSGKRYVYRFVCDLQNLLGFTPEE
B2: PPEF2 (parent)
chain: FIPSSHNDRDFLTRIFTEDRFAQD

Variants of: B1
Experiment: protein stability index of a GFP-peptide fusion (GPS, HEK-293T) (PSI 1-6); higher = more stable
Conditions: c terminus: a fixed tail appended
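Further: lentivirally expressed fusions sorted by FACS into six bins by GFP to DsRed ratio, PSI derived from sequencing read proportions per bin multiplied by bin number.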

| Variant | protein stability index |
| --- | --- |
| TSMKRYVYRFVCDLQNLLGFTPEE | 2.08 |
| TSYKRYVYRFVCDLQNLLGFTPEE | 2.09 |
| TSIKRYVYRFVCDLQNLLGFTPEE | 2.11 |
| TSWKRYVYRFVCDLQNLLGFTPEE | 1.65 |
| TSKKRYVYRFVCDLQNLLGFTPEE | 1.7 |
| TSNKRYVYRFVCDLQNLLGFTPEE | 2.77 |
| TSEKRYVYRFVCDLQNLLGFTPEE | 1.78 |
| TSHKRYVYRFVCDLQNLLGFTPEE | 2.83 |
| TSAKRYVYRFVCDLQNLLGFTPEE | 2.96 |
| TSDKRYVYRFVCDLQNLLGFTPEE | 3.19 |
| TSTKRYVYRFVCDLQNLLGFTPEE | 1.86 |
| TSQKRYVYRFVCDLQNLLGFTPEE | 2.31 |
| TSLKRYVYRFVCDLQNLLGFTPEE | 1.65 |
| TSCKRYVYRFVCDLQNLLGFTPEE | 1.81 |
| TSSKRYVYRFVCDLQNLLGFTPEE | 2.36 |
| TSVKRYVYRFVCDLQNLLGFTPEE | 1.86 |
| TSPKRYVYRFVCDLQNLLGFTPEE | 1.5 |
| TSRKRYVYRFVCDLQNLLGFTPEE | 2 |
| TSFKRYVYRFVCDLQNLLGFTPEE | 2.33 |
| TSGDRYVYRFVCDLQNLLGFTPEE | 2.24 |

| Variant | protein stability index |
| --- | --- |
| TSGFRYVYRFVCDLQNLLGFTPEE | 2.34 |
| TSGCRYVYRFVCDLQNLLGFTPEE | 2.58 |
| TSGGRYVYRFVCDLQNLLGFTPEE | 2.54 |
| TSGMRYVYRFVCDLQNLLGFTPEE | 1.74 |
| TSGLRYVYRFVCDLQNLLGFTPEE | 2.8 |
| TSGARYVYRFVCDLQNLLGFTPEE | 2.29 |
| TSGIRYVYRFVCDLQNLLGFTPEE | 1.36 |
| TSGERYVYRFVCDLQNLLGFTPEE | 1.72 |
| TSGHRYVYRFVCDLQNLLGFTPEE | 2.06 |
| TPGKRYVYRFVCDLQNLLGFTPEE | 2.25 |
| TEGKRYVYRFVCDLQNLLGFTPEE | 2.33 |
| TMGKRYVYRFVCDLQNLLGFTPEE | 2.6 |
| TIGKRYVYRFVCDLQNLLGFTPEE | 3.22 |
| TFGKRYVYRFVCDLQNLLGFTPEE | 2.74 |
| TWGKRYVYRFVCDLQNLLGFTPEE | 4.44 |
| TAGKRYVYRFVCDLQNLLGFTPEE | 1.74 |
| TVGKRYVYRFVCDLQNLLGFTPEE | 1.83 |
| TRGKRYVYRFVCDLQNLLGFTPEE | 1.77 |
| TKGKRYVYRFVCDLQNLLGFTPEE | 2.29 |
| TLGKRYVYRFVCDLQNLLGFTPEE | 3 |

| Variant | protein stability index |
| --- | --- |
| TCGKRYVYRFVCDLQNLLGFTPEE | 1.64 |
| TQGKRYVYRFVCDLQNLLGFTPEE | 1.85 |
| THGKRYVYRFVCDLQNLLGFTPEE | 2.62 |
| TDGKRYVYRFVCDLQNLLGFTPEE | 2.89 |
| TNGKRYVYRFVCDLQNLLGFTPEE | 3.49 |
| TGGKRYVYRFVCDLQNLLGFTPEE | 2.02 |
| ESGKRYVYRFVCDLQNLLGFTPEE | 2.38 |
| WSGKRYVYRFVCDLQNLLGFTPEE | 2.1 |
| ISGKRYVYRFVCDLQNLLGFTPEE | 2.6 |
| QSGKRYVYRFVCDLQNLLGFTPEE | 1.94 |
| RSGKRYVYRFVCDLQNLLGFTPEE | 2.29 |
| SSGKRYVYRFVCDLQNLLGFTPEE | 2.4 |
| KSGKRYVYRFVCDLQNLLGFTPEE | 1.66 |
| PSGKRYVYRFVCDLQNLLGFTPEE | 1.94 |
| GSGKRYVYRFVCDLQNLLGFTPEE | 2.08 |
| YSGKRYVYRFVCDLQNLLGFTPEE | 1.71 |
| CSGKRYVYRFVCDLQNLLGFTPEE | 1.7 |
| NSGKRYVYRFVCDLQNLLGFTPEE | 1.82 |
| MSGKRYVYRFVCDLQNLLGFTPEE | 1.86 |
| HSGKRYVYRFVCDLQNLLGFTPEE | 2.12 |

Variants of: B2
Experiment: as above
Conditions: c terminus: a fixed tail appended

| Variant | protein stability index |
| --- | --- |
| FIPSSHNDRDFLTRIFTEDRFQQD | 2.15 |
| FIPSSHNDRDFLTRIFTEDRFFQD | 2.07 |
| FIPSSHNDRDFLTRIFTEDRFVQD | 2.56 |
| FIPSSHNDRDFLTRIFTEDRFGQD | 1.89 |
| FIPSSHNDRDFLTRIFTEDRFDQD | 2.56 |
| FIPSSHNDRDFLTRIFTEDRFSQD | 1.63 |
| FIPSSHNDRDFLTRIFTEDRFPQD | 1.95 |
| FIPSSHNDRDFLTRIFTEDRFRQD | 2.16 |
| FIPSSHNDRDFLTRIFTEDRFLQD | 2 |
| FIPSSHNDRDFLTRIFTEDRFEQD | 2.2 |
| FIPSSHNDRDFLTRIFTEDRFTQD | 1.93 |
| FIPSSHNDRDFLTRIFTEDRFIQD | 1.78 |
| FIPSSHNDRDFLTRIFTEDRFMQD | 1.8 |
| FIPSSHNDRDFLTRIFTEDRFNQD | 2.59 |
| FIPSSHNDRDFLTRIFTEDRFWQD | 3.33 |
| FIPSSHNDRDFLTRIFTEDRFKQD | 3.16 |
| FIPSSHNDRDFLTRIFTEDRFHQD | 1.83 |
| FIPSSHNDRDFLTRIFTEDRFCQD | 1.95 |
| FIPSSHNDRDFLTRIFTEDRFYQD | 1.61 |
| FIPSSHNDRDFLTRIFTEHRFAQD | 1.54 |
| FIPSSHNDRDFLTRIFTECRFAQD | 2.12 |
| FIPSSHNDRDFLTRIFTEVRFAQD | 2.14 |
| FIPSSHNDRDFLTRIFTEQRFAQD | 1.68 |
| FIPSSHNDRDFLTRIFTEGRFAQD | 2.46 |
| FIPSSHNDRDFLTRIFTENRFAQD | 1.57 |
| FIPSSHNDRDFLTRIFTEWRFAQD | 1.99 |

| Variant | protein stability index |
| --- | --- |
| FIPSSHNDRDFLTRIFTEIRFAQD | 2.76 |
| FIPSSHNDRDFLTRIFTEERFAQD | 2.32 |
| FIPSSHNDRDFLTRIFTERRFAQD | 1.8 |
| FIPSSHNDRDFLTRIFTEKRFAQD | 2.44 |
| FIPSSHNDRDFLTRIFTELRFAQD | 1.96 |
| FIPSSHNDRDFLTRIFTEMRFAQD | 3.16 |
| FIPSSHNDRDFLTRIFTETRFAQD | 2.8 |
| FIPSSHNDRDFLTRIFTEFRFAQD | 1.77 |
| FIPSSHNDRDFLTRIFTEARFAQD | 3.2 |
| FIPSSHNDRDFLTRIFTEYRFAQD | 1.79 |
| FIPSSHNDRDFLTRIFTESRFAQD | 2.51 |
| FIPSSHNDRDFLTRIFTEPRFAQD | 1.99 |
| FIPSSHNDRDFLTRIFTEDRGAQD | 1.92 |
| FIPSSHNDRDFLTRIFTEDRLAQD | 2.27 |
| FIPSSHNDRDFLTRIFTEDRIAQD | 1.74 |
| FIPSSHNDRDFLTRIFTEDRHAQD | 1.87 |
| FIPSSHNDRDFLTRIFTEDRQAQD | 1.98 |
| FIPSSHNDRDFLTRIFTEDRYAQD | 2.27 |
| FIPSSHNDRDFLTRIFTEDRDAQD | 2.52 |
| FIPSSHNDRDFLTRIFTEDRNAQD | 2.54 |
| FIPSSHNDRDFLTRIFTEDRSAQD | 1.65 |
| FIPSSHNDRDFLTRIFTEDRAAQD | 1.59 |
| FIPSSHNDRDFLTRIFTEDRTAQD | 1.75 |
| FIPSSHNDRDFLTRIFTEDRCAQD | 1.81 |
| FIPSSHNDRDFLTRIFTEDRVAQD | 1.64 |
| FIPSSHNDRDFLTRIFTEDRWAQD | 2.09 |

| Variant | protein stability index |
| --- | --- |
| FIPSSHNDRDFLTRIFTEDRKAQD | 1.84 |
| FIPSSHNDRDFLTRIFTEDRRAQD | 1.75 |
| FIPSSHNDRDFLTRIFTEDRMAQD | 1.87 |
| FIPSSHNDRDFLTRIFTEDRPAQD | 2.02 |
| FIPSSHNDRDFLTRIFTEDREAQD | 1.81 |
| FIPSSHNDRDFLTRIFTEDFFAQD | 2.24 |
| FIPSSHNDRDFLTRIFTEDSFAQD | 2.65 |
| FIPSSHNDRDFLTRIFTEDTFAQD | 1.47 |
| FIPSSHNDRDFLTRIFTEDQFAQD | 2.15 |
| FIPSSHNDRDFLTRIFTEDMFAQD | 1.39 |
| FIPSSHNDRDFLTRIFTEDKFAQD | 2.11 |
| FIPSSHNDRDFLTRIFTEDPFAQD | 2.41 |
| FIPSSHNDRDFLTRIFTEDGFAQD | 1.69 |
| FIPSSHNDRDFLTRIFTEDWFAQD | 2.54 |
| FIPSSHNDRDFLTRIFTEDAFAQD | 2.05 |
| FIPSSHNDRDFLTRIFTEDYFAQD | 2.37 |
| FIPSSHNDRDFLTRIFTEDNFAQD | 2.07 |
| FIPSSHNDRDFLTRIFTEDIFAQD | 1.32 |
| FIPSSHNDRDFLTRIFTEDVFAQD | 1.99 |
| FIPSSHNDRDFLTRIFTEDLFAQD | 2.05 |
| FIPSSHNDRDFLTRIFTEDCFAQD | 2.1 |
| FIPSSHNDRDFLTRIFTEDEFAQD | 1.81 |
| FIPSSHNDRDFLTRIFTEDDFAQD | 2.42 |
| FIPSSHNDRDFLTRIFTEDHFAQD | 3.22 |
| FIPSSHNDRDFLTRIFTEDRFAQS | 2.93 |
| FIPSSHNDRDFLTRIFTEDRFAQL | 2.2 |

| Variant | protein stability index |
| --- | --- |
| FIPSSHNDRDFLTRIFTEDRFAQC | 1.75 |
| FIPSSHNDRDFLTRIFTEDRFAQR | 2.19 |
| FIPSSHNDRDFLTRIFTEDRFAQM | 1.94 |
| FIPSSHNDRDFLTRIFTEDRFAQN | 1.62 |
| FIPSSHNDRDFLTRIFTEDRFAQW | 2.63 |
| FIPSSHNDRDFLTRIFTEDRFAQF | 2.83 |
| FIPSSHNDRDFLTRIFTEDRFAQK | 1.99 |
| FIPSSHNDRDFLTRIFTEDRFAQA | 2.61 |
| FIPSSHNDRDFLTRIFTEDRFAQQ | 1.27 |
| FIPSSHNDRDFLTRIFTEDRFAQH | 3.06 |
| FIPSSHNDRDFLTRIFTEDRFAQP | 1.73 |
| FIPSSHNDRDFLTRIFTEDRFAQV | 2.79 |
| FIPSSHNDRDFLTRIFTEDRFAQE | 1.95 |
| FIPSSHNDRDFLTRIFTEDRFAQT | 1.52 |
| FIPSSHNDRDFLTRIFTEDRFAQY | 1.9 |
| FIPSSHNDRDFLTRIFTEDRFAQG | 2.13 |
| FIPSSHNDRDFLTRIFTEDRFAQI | 2.99 |
| FIPSSHNDRDFLTRIFTEDRFASD | 2.35 |
| FIPSSHNDRDFLTRIFTEDRFAPD | 3.1 |
| FIPSSHNDRDFLTRIFTEDRFADD | 1.72 |
| FIPSSHNDRDFLTRIFTEDRFAYD | 2.84 |
| FIPSSHNDRDFLTRIFTEDRFAID | 1.99 |
| FIPSSHNDRDFLTRIFTEDRFAKD | 2.33 |
| FIPSSHNDRDFLTRIFTEDRFAHD | 2.18 |
| FIPSSHNDRDFLTRIFTEDRFARD | 3.08 |
| FIPSSHNDRDFLTRIFTEDRFALD | 2.06 |

| Variant | protein stability index |
| --- | --- |
| FIPSSHNDRDFLTRIFTEDRFAAD | 1.96 |
| FIPSSHNDRDFLTRIFTEDRFAGD | 1.89 |
| FIPSSHNDRDFLTRIFTEDRFAWD | 2.55 |
| FIPSSHNDRDFLTRIFTEDRFAFD | 2.44 |
| FIPSSHNDRDFLTRIFTEDRFACD | 2.27 |
| FIPSSHNDRDFLTRIFTEDRFAMD | 2.09 |
| FIPSSHNDRDFLTRIFTEDRFAVD | 2.15 |
| FIPSSHNDRDFLTRIFTEDRFATD | 3.01 |
| FIPSSHNDRDFLTRIFTEDRFAND | 2.68 |
| FIPSSHNDRDFLTRIFTEDRFAED | 2.06 |
| FIPSSHNDRDFLTRIFTHDRFAQD | 3.19 |
| FIPSSHNDRDFLTRIFTIDRFAQD | 3.03 |
| FIPSSHNDRDFLTRIFTPDRFAQD | 2.98 |
| FIPSSHNDRDFLTRIFTNDRFAQD | 2.12 |
| FIPSSHNDRDFLTRIFTVDRFAQD | 2.51 |
| FIPSSHNDRDFLTRIFTMDRFAQD | 2.96 |
| FIPSSHNDRDFLTRIFTQDRFAQD | 1.71 |
| FIPSSHNDRDFLTRIFTLDRFAQD | 2.19 |
| FIPSSHNDRDFLTRIFTTDRFAQD | 2.27 |
| FIPSSHNDRDFLTRIFTKDRFAQD | 2.47 |
| FIPSSHNDRDFLTRIFTWDRFAQD | 2.25 |
| FIPSSHNDRDFLTRIFTSDRFAQD | 2.18 |
| FIPSSHNDRDFLTRIFTRDRFAQD | 2.16 |
| FIPSSHNDRDFLTRIFTYDRFAQD | 1.54 |
